Test results: the supplement of paper PMC7877785
± gives the uncertainty stated by the source.

Test: self-splicing fitness, log relative to wild type (ln ratio); higher = more splicing; Tetrahymena group I intron in knt gene, E. coli kanamycin selection, DiMSum; sequences stand for … in CUCUCU…GGAGGGAAAAGUUAUCAGGCAUGCACCUGGUAGCUAGUCUUUAAACCAAUAGAUUGCAUCGGUUUAAAAGGCAAGACCGUCAAAUUGCGGGAAAGGGGUCAACAGCCGUUCAGUACCAAGUCUCAGGGGAAACUUUGAGAUGGCCUUGCAAAGGGUAUGGUAAUAAGCUGACGGACAUGGUCCUAACCACGCAGCCAAGUCCUAAGUCAACAGAUCUUCUGUUGAUAUGGAUGCAGUUCACAGACUAAAUGUCGGUCGGGGAAGAUGUAUUCUUCUCAUAAGAUAUAGUCGGACCUCUCCUUAAUGGGAGCUAGCGGAUGAAGUGAUGCAACACUGGAGCCGCUGGGAACUAAUUUGUAUGCGAAAGUAUAUUGAUUAGUUUUGGAGUACUCGUGGUCG
How it was run: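 Colonies from six replicate transformations of E. coli BL21(DE3) were pooled and amplicon-sequenced on an Illumina HiSeq 2500. The library placed an intron with all eight P1ex-region nucleotides randomised inside the knt kanamycin-resistance gene on pET-22b(+), and cells grew overnight at 37°C or 30°C on LB agar with or without 25 μg/mL kanamycin (plus 100 μg/mL carbenicillin, 50 μM IPTG, 0.2% rhamnose). Fitness is the DiMSum error-weighted combination of wild-type-normalised replicate fold changes, kanamycin versus none.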

Row | Sequence | self-splicing fitness (ln) (30 °C) | self-splicing fitness (ln) (37 °C)
1 | UCGUAGCAAUAUUACGAUGU | -3.41 ± 0.24 | -2.24 ± 0.2
2 | UCGUAGCAAUAUUACGCACU | -2.67 ± 0.11 | -2.16 ± 0.11
3 | UCGUAGCAAUAUUACGCCGG | -0.692 ± 0.13 | -2.41 ± 0.28
4 | UCGUAGCAAUAUUACGCGAA | -2.68 ± 0.23 | -0.932 ± 0.19
5 | UCGUAGCAAUAUUACGCGGU | -2.32 ± 0.15 | -1.6 ± 0.18
6 | UCGUAGCAAUAUUACGCGUA | -1.16 ± 0.14 | -0.895 ± 0.11
7 | UCGUAGCAAUAUUACGCGUC |  | -2.59 ± 0.33
8 | UCGUAGCAAUAUUACGCUAA |  | -1.48 ± 0.29
9 | UCGUAGCAAUAUUACGCUGG | -3.09 ± 0.15 | -1.88 ± 0.15
10 | UCGUAGCAAUAUUACGGAAU |  | -1.55 ± 0.27
11 | UCGUAGCAAUAUUACGGAGU | -2.81 ± 0.24 | 
12 | UCGUAGCAAUAUUACGGCCG | -1.51 ± 0.36 | -0.102 ± 0.27
13 | UCGUAGCAAUAUUACGGGCU |  | -2.41 ± 0.49
14 | UCGUAGCAAUAUUACGGUUC | -3.12 ± 0.3 | -2.07 ± 0.27
15 | UCGUAGCAAUAUUACGUAGA | -0.639 ± 0.14 | 0.461 ± 0.14
16 | UCUAAGCAAUAUUACGACCA | -1.73 ± 0.24 | -0.242 ± 0.19
17 | UCUAAGCAAUAUUACGACGA | -0.414 ± 0.2 | 0.116 ± 0.17
18 | UCUAAGCAAUAUUACGAUGG | -0.0699 ± 0.087 | 0.158 ± 0.11
19 | UCUAAGCAAUAUUACGAUUG | -3.4 ± 0.18 | -2.26 ± 0.17
20 | UCUAAGCAAUAUUACGCAAA | -3.34 ± 0.21 | -2.97 ± 0.2

Row | Sequence | self-splicing fitness (ln) (30 °C) | self-splicing fitness (ln) (37 °C)
21 | UCUAAGCAAUAUUACGCCAC | -2.44 ± 0.36 | -3.11 ± 0.35
22 | UCUAAGCAAUAUUACGCGAG | -3.69 ± 0.25 | -1.6 ± 0.17
23 | UCUAAGCAAUAUUACGCGCG | -1.87 ± 0.14 | -1.74 ± 0.18
24 | UCUAAGCAAUAUUACGCGCU | -4.34 ± 0.46 | -1.6 ± 0.27
25 | UCUAAGCAAUAUUACGCGGG | -3.14 ± 0.2 | -1.41 ± 0.18
26 | UCUAAGCAAUAUUACGCGGU | -3.76 ± 0.29 | -1.4 ± 0.2
27 | UCUAAGCAAUAUUACGCGUG | -1.43 ± 0.087 | -1.15 ± 0.11
28 | UCUAAGCAAUAUUACGGAAG | -4.81 ± 0.46 | -1.49 ± 0.17
29 | UCUAAGCAAUAUUACGGAGA | -1.6 ± 0.22 | -1.3 ± 0.18
30 | UCUAAGCAAUAUUACGGAGC |  | -1.68 ± 0.37
31 | UCUAAGCAAUAUUACGGCGC | -1.94 ± 0.34 | -1.43 ± 0.26
32 | UCUAAGCAAUAUUACGGCGG | -0.251 ± 0.076 | -0.431 ± 0.096
33 | UCUAAGCAAUAUUACGGCUA | -1.86 ± 0.27 | -3.14 ± 0.47
34 | UCUAAGCAAUAUUACGGGAG | -3.79 ± 0.16 | -2.5 ± 0.14
35 | UCUAAGCAAUAUUACGGGUU | -3.97 ± 0.17 | -2.93 ± 0.19
36 | UCUAAGCAAUAUUACGGUGG | -1.18 ± 0.082 | -0.0857 ± 0.13
37 | UCUAAGCAAUAUUACGGUUC | -3.4 ± 0.19 | -2.39 ± 0.2
38 | UCUAAGCAAUAUUACGGUUU | -3.21 ± 0.43 | -2.56 ± 0.31
39 | UCUAAGCAAUAUUACGUAAG | -0.798 ± 0.075 | -0.333 ± 0.1
